Assay results reported in patent US20230220070A1 (ARIALYS THERAPEUTICS, published 2023).

How the values were obtained:
[1] = target: T1, human NMDAR (NR1/NR2B) on NMDAR expressing HEK cells (human, UniProt Q05586 19-938; Q13224 27-1484); assay: flow cytometry on NMDAR-expressing HEK cells, PE-labelled anti-human IgG, GeoMFI
T1 construct: whole, on cells; Commercial HEK cell line (Charles River Laboratories, CTN6121); The antibodies are directed against the NR1 subunit; also called cell surface NMDAR; NMDAR expressed in HEK cells
Method: The binding activity of the produced humanized one-armed anti-human NR1 monoclonal antibodies was evaluated in a flow cytometry trial using the NMDAR expressing HEK cell.
The NMDAR expressing HEK cells were induced overnight and collected. […] After staining, the cells were sedimented at 1,200 rpm for 5 minutes and the supernatant was removed. After adding 2% Dialyzed FBS to the cells, the cells were centrifuged and sedimented. After the supernatant was removed, the PE labeled anti-human IgG antibody (Jackson ImmunoResearch Laboratories, 109-116-098) was diluted 100 times with 2% Dialyzed FBS and added to cells for 30 minutes at 4° C. After staining, the cells were centrifuged and sedimented as described above. After removing the supernatant, the cells were suspended in 2% Dialyzed FBS and the steps after secondary staining were repeated. The flow cytometry (FACS Verse) was measured as described in Example 3. each antibody binds with the cell surface NMDAR from GeoMFI showing the PE Fluorescence intensity value was analyzed using FlowJo (Becton Dickinson, Ver. 10.0.8).

[2] = target: T2, human NR1-His protein (extracellular domain of human NR1 with linker, HisTag and AviTag) (human, UniProt Q05586 19-392); assay: competition ELISA on plate-coated human NR1-His protein; inhibition of the binding of biotin-labelled P003-102, streptavidin-HRP chemiluminescence
T2 construct: Expressed in Expi293F cells and purified from the supernatant; also called human NRA-His protein; human NR-His protein
Method: Specifically, 15 μL of the human NR1-His protein solution (1 μg/mL in Tris Buffered Saline (herein referred to as “TBS”)) was added to the 384 well plate (Thermo Fisher Scientific, 460372) and incubated overnight at 4° C. Then, the human NRA-His protein solution was removed and washed with 0.5% Tween-20 comprising TBS, NIPPON GENE, 310-07375 (referred to as “TBS-T”). After the wash, 50 uL of Blocking One (Nacalai Tesque, Inc., 03953-95) was added and incubated at room temperature for 1 hour or more.
After the wash, 15 μL is added to the HRP-labelled streptavidin (Funakoshi Co., Ltd., 21130) diluted 8,000 times using diluent, and incubated at room temperature for 30 minutes.

[3] = target: T2, human NR1-His protein (extracellular …); assay: SPR (Biacore T200), antibody captured by anti-human IgG on a CM5 chip, human NR1-His protein as analyte, 1:1 binding model

B1: ABN-5, one-armed anti-human NR1 antibody derived from P003-102 (antibody, human IgG1, lambda, L234A L235A)
heavy: not shown
light: NFMLTQPHSVSESPGKTVTISCTRSSGSIASNYVQWYQQRPGSAPTTVIYEDNQRPSGVPDRFSGSIDSSSNSASLTISGLKTEDEADYYCQSYDSSTVVFGGGTKLTVLGQPKANPTVTLFPPSSEELQANKATLVCLISDFYPGAVTVAWKADGSPVKAGVETTKPSKQSNNKYAASSYLSLTPEQWKSHRSYSCQVTHEGSTVEKTVAPTECS
chain: not shown
notes: Monovalent one-armed antibody made of one heavy chain (LALA; T366S, L368A, Y407V), one light chain and one Fc polypeptide
[1]
  EC50 (read off the curve): ~0.8 µg/mL

B2: ABN-4, humanized one-armed anti-human NR1 antibody (antibody, human IgG1, kappa, L234A L235A)
heavy: not shown
light: DIQMTQSPSSLSASVGDRVTITCRPSENIYSNLAWYQQKPGKAPKLLVYAATNLADGVPSRFSGSGSGTDYTLTISSLQPEDIATYYCQHFWDSPPTFGQGTKLEIKRTVAAPSVFIFPPSDEQLKSGTASVVCLLNNFYPREAKVQWKVDNALQSGNSQESVTEQDSKDSTYSLSSTLTLSKADYEKHKVYACEVTHQGLSSPVTKSFNRGEC
chain: not shown
[2]
  IC50 (read off the curve): ~2 µg/mL
[3]
  Kd: 0.878 nM

B3: ABN-2, humanized one-armed anti-human NR1 antibody (antibody, human IgG1, kappa, L234A L235A)
heavy: not shown
light: DLQMTQSPSSLSASVGDRVTITCKASQDVNTAVAWYQQKPGKAPKLLIYWASTRHTGVPSRFSGSGSGTDYTLTISSLQPEDFATYYCQQHYSTPFTFGQGTKVEIKRTVAAPSVFIFPPSDEQLKSGTASVVCLLNNFYPREAKVQWKVDNALQSGNSQESVTEQDSKDSTYSLSSTLTLSKADYEKHKVYACEVTHQGLSSPVTKSFNRGEC
chain: not shown
notes: also called ABN_178-m3
[2]
  IC50 (read off the curve): ~0.3 µg/mL
[1]
  EC50 (read off the curve): ~0.05 µg/mL
